Legend:
canine TNF alpha [1] = biological target: T1, canine TNF alpha (canine, UniProt P51742 77-233); experiment: ELISA (FIG. 16 panel C)
T1 construct: Coated at 5 ug/ml in the ELISA; Used at 1 ng/mL in the reporter assay

human TNF = biological target: T2, human TNF (human, UniProt P01375 77-233); experiment: ELISA (FIG. 16 panel B)
T2 construct: also called huTNF

canine TNF alpha [2] = biological target: T1, canine TNF alpha; experiment: ELISA, canine TNF alpha coated; antibody 5 to 0.05 µg/ml (FIG. 14B)

T1 sequence (P51742 77-233 limits assumed): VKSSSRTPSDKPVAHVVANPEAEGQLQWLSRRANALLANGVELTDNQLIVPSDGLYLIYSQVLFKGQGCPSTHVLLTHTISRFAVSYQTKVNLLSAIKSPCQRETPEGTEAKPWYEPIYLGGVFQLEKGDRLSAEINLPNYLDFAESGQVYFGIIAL
T2 sequence (P01375 77-233 limits assumed): as the sequence (P51742 77-233 limits assumed) above, with K2R, E21Q, S30N, T44R, I49V, D53E, F83I, T109A, L138R, N140D counted along it

binding result (canine TNF alpha [1])	binding result (human TNF)	binding result (canine TNF alpha [2])	Binder
no binding	binds		caninised anti-huTNF MAb 148 (antibody, V domains shown, Expressed in CHO cells and purified by Protein A chromatography) VH: EVQLVESGGGVVQPGGSLRLSCAASGFIFSSYAMRWVRQAPGKGLEWVAFMSYDGSNKKYADSVKGRFTISRDNSKNTLYLQMNSLRAEDTAVYYCARDRGIAAGGNYYYYGMDVWGQGTSVTVSS VL: EIVMTQSPASLSLSPGEKATISCRASQSVYSYLAWYQQKPGQAPRLLIYDASNRATGVPSRFSGSGSGTDFTLTISSLEPEDVAVYYCQQPSNWPPFTFGPGTKVDIKR
	binds	binds	caninised anti-TNF monoclonal antibody based on D2E7 (ca-HCB+ca-kLC) (antibody, V domains shown, also called caninised (Ca) D2E7 based MAb; canine PETised D2E7) VH: not shown VL: DIVMTQSPASLSLSQEEKVTITCRASQGIRNYLAWYQQKPGQAPKLLIYAASTLQSGVPSRFSGSGSGTDFTLTISSLEPEDVAVYYCQRYNRAPYTFGQGTKVEIKR

— patent US20140328838A1 (NVIP, published 2014)
